Changes are numbered by the printed parent chain. Numbers in names are those of the source. Where “and” joins values, the source holds several entries; their conditions need not be identical. Equal values may be shown once. Blank lines part the entries; values can stand above or below the binder they belong to.
Legend:
[1] = molecular target: feline FcRn (FCN-F82W3, Acrobiosystems) (feline); assay: SPR Carterra, IgG coupled, pH 6.0
[2] = molecular target: feline FcRn (FCN-F82W3, Acrobiosystems) (feline); assay: SPR Carterra, IgG coupled, pH 7.4
[3] = molecular target: feline FcRn (IgG receptor FcRn large subunit p51 with feline beta-2-microglobulin) (feline); assay: SPR Biacore 8K, Fc captured by SASA tag on BSA, pH 6.0
[4] = molecular target: feline FcRn (IgG receptor FcRn large subunit p51 with feline beta-2-microglobulin) (feline); assay: SPR Biacore 8K+, IgG on C1 chip, pH 5.9, 1:1 kinetic fit

Kd [1]: 90.7 nM | koff [1]: 0.0417 s⁻¹ | kon [1]: 460000 M⁻¹ s⁻¹
B2: anti-NGF feline IgG1a, Fc variant R334D, R301L (antibody, part only; not given: anti-NGF variable domains, light chain, not shown: another chain or arm of the molecule; small tags and cut ends)
Fc: PPEMLGGPSIFIFPPKPKDTLSISRTPEVTCLVVDLGPDDSDVQITWFVDNTQVYTAKTSPREEQFNSTYLVVSVLPILHQDWLKGKEFKCKVNSKSLPSPIEDTISKAKGQPHEPQVYVLPPAQEELSRNKVSVTCLIKSFHPPDIAVEWEITGQPEPENNYRTTPPQLDSDGTYFVYSKLSVDRSHWQRGNTYTCSVSHEALHSHHTQKSLTQSPGK

Kd [1]: 47.3 nM | koff [1]: 0.0283 s⁻¹ | kon [1]: 598000 M⁻¹ s⁻¹
B4: anti-NGF feline IgG1a, Fc variant T286E, S428H (antibody, part only; not given: Anti-NGF variable domains, not shown: another chain or arm of the molecule; small tags and cut ends)
Fc: B2 Fc with T56E, L71R, D104R, S200H

Kd [1]: 95.7 nM | koff [1]: 0.0437 s⁻¹ | kon [1]: 457000 M⁻¹ s⁻¹
B5: anti-NGF feline IgG1a, Fc variant R334D, T437L (antibody, part only; not given: anti-NGF variable domains, light chain, not shown: another chain or arm of the molecule; small tags and cut ends)
Fc: B2 Fc with L71R, T209L

Kd [3]: 41.7 nM and 43.3 nM | koff [3]: 0.0158 s⁻¹ and 0.0161 s⁻¹ | kon [3]: 378000 M⁻¹ s⁻¹ and 371000 M⁻¹ s⁻¹
B6: feline IgG1a Fc variant S434F (CH2-CH3) with SASA tag (Fc fusion, part only; not given: SASA tag, not shown: another chain or arm of the molecule; small tags and cut ends)
Fc: B2 Fc with L71R, D104R, S206F

Kd [3]: 528 nM and 565 nM | koff [3]: 0.103 s⁻¹ and 0.105 s⁻¹ | kon [3]: 195000 M⁻¹ s⁻¹ and 187000 M⁻¹ s⁻¹
B8: feline IgG1a Fc variant S428Y (CH2-CH3) with SASA tag (Fc fusion, part only; not given: SASA tag, not shown: another chain or arm of the molecule; small tags and cut ends)
Fc: B2 Fc with L71R, D104R, S200Y

Kd [3]: 603 nM | koff [3]: 0.1 s⁻¹ | kon [3]: 166000 M⁻¹ s⁻¹
B9: feline IgG1a Fc variant S428M (CH2-CH3) with SASA tag (Fc fusion, part only; not given: SASA tag, not shown: another chain or arm of the molecule; small tags and cut ends)
Fc: B2 Fc with L71R, D104R, S200M

Kd [1]: 133 nM | koff [1]: 0.0561 s⁻¹ | kon [1]: 423000 M⁻¹ s⁻¹
B10: anti-NGF feline IgG1a, Fc variant R334D (antibody, part only; not given: anti-NGF variable domains, light chain, not shown: another chain or arm of the molecule; small tags and cut ends)
Fc: B2 Fc with L71R

Kd [1]: 102 nM | koff [1]: 0.0415 s⁻¹ | kon [1]: 406000 M⁻¹ s⁻¹
B12: anti-NGF feline IgG1a, Fc variant L309E (antibody, part only; not given: anti-NGF variable domains, light chain, not shown: another chain or arm of the molecule; small tags and cut ends)
Fc: B2 Fc with L71R, L79E, D104R

Kd [3]: 103 nM and 102 nM | koff [3]: 0.0265 s⁻¹ and 0.0263 s⁻¹ | kon [3]: 257000 M⁻¹ s⁻¹ and 258000 M⁻¹ s⁻¹
B13: feline IgG1a Fc variant S252Y (CH2-CH3) with SASA tag (Fc fusion, part only; not given: SASA tag, not shown: another chain or arm of the molecule; small tags and cut ends)
Fc: B2 Fc with S22Y, L71R, D104R

Kd [1]: 61.4 nM | koff [1]: 0.0514 s⁻¹ | kon [1]: 837000 M⁻¹ s⁻¹
B15: anti-NGF feline IgG1a, Fc variant I377Y (antibody, part only; not given: anti-NGF variable domains, not shown: another chain or arm of the molecule; small tags and cut ends)
Fc: B2 Fc with L71R, D104R, I147Y

Kd [1]: 136 nM | koff [1]: 0.0584 s⁻¹ | kon [1]: 428000 M⁻¹ s⁻¹
B19: anti-NGF feline IgG1a, Fc variant K326D (antibody, part only; not given: anti-NGF variable domains, not shown: another chain or arm of the molecule; small tags and cut ends)
Fc: B2 Fc with L71R, K96D, D104R

Kd [1]: 116 nM | koff [1]: 0.062 s⁻¹ | kon [1]: 533000 M⁻¹ s⁻¹
B20: anti-NGF feline IgG1a, Fc variant E380T (antibody, part only; not given: anti-NGF variable domains, not shown: another chain or arm of the molecule; small tags and cut ends)
Fc: B2 Fc with L71R, D104R, E150T

Kd [1]: 5.2 nM | koff [1]: 0.00629 s⁻¹ | kon [1]: 1.22e+06 M⁻¹ s⁻¹
B23: anti-NGF feline IgG1a, Fc variant S434Y (antibody, part only; not given: Anti-NGF variable domains, not shown: another chain or arm of the molecule; small tags and cut ends)
Fc: B2 Fc with L71R, D104R, S206Y

Continued, binder first:

B1: anti-NGF feline IgG1a, Fc variant T286E, S428R (antibody, part only; not given: anti-NGF variable domains, not shown: another chain or arm of the molecule; small tags and cut ends)
Fc: B2 Fc with T56E, L71R, D104R, S200R
Kd [1]: 6.9 nM | koff [1]: 0.00648 s⁻¹ | kon [1]: 939000 M⁻¹ s⁻¹ | Kd [2]: 12.3 nM | koff [2]: 0.113 s⁻¹ | kon [2]: 9.17e+06 M⁻¹ s⁻¹

B3: anti-NGF feline IgG1a, Fc variant S434Y, S254R (antibody, part only; not given: anti-NGF variable domains, light chain, not shown: another chain or arm of the molecule; small tags and cut ends)
Fc: B2 Fc with S24R, L71R, D104R, S206Y
Kd [1]: 2.1 nM | koff [1]: 0.00568 s⁻¹ | kon [1]: 2.75e+06 M⁻¹ s⁻¹

B7: feline IgG1a Fc variant S252F (CH2-CH3) with SASA tag (Fc fusion, part only; not given: SASA tag, not shown: another chain or arm of the molecule; small tags and cut ends)
Fc: B2 Fc with S22F, L71R, D104R
Kd [3]: 470 nM and 492 nM | koff [3]: 0.0957 s⁻¹ and 0.101 s⁻¹ | kon [3]: 203000 M⁻¹ s⁻¹ and 205000 M⁻¹ s⁻¹

B11: anti-NGF feline IgG1a, Fc variant S252Y (antibody, part only; not given: Anti-NGF variable domains, not shown: another chain or arm of the molecule; small tags and cut ends)
Fc: B2 Fc with S22Y, L71R, D104R
Kd [1]: 9.8 nM | koff [1]: 0.0095 s⁻¹ | kon [1]: 974000 M⁻¹ s⁻¹

B14: anti-NGF feline IgG1a, Fc variant R334D, S428R (antibody, part only; not given: anti-NGF variable domains, light chain, not shown: another chain or arm of the molecule; small tags and cut ends)
Fc: B2 Fc with L71R, S200R
Kd [1]: 81.7 nM | koff [1]: 0.0493 s⁻¹ | kon [1]: 603000 M⁻¹ s⁻¹

B16: feline IgG1a Fc variant S428L (CH2-CH3) with SASA tag (Fc fusion, part only; not given: SASA tag, not shown: another chain or arm of the molecule; small tags and cut ends)
Fc: B2 Fc with L71R, D104R, S200L
Kd [3]: 485 nM and 763 nM | koff [3]: 0.0788 s⁻¹ and 0.0803 s⁻¹ | kon [3]: 162000 M⁻¹ s⁻¹ and 105000 M⁻¹ s⁻¹

B17: anti-NGF feline IgG1a, Fc variant L309Y (antibody, part only; not given: anti-NGF variable domains, light chain, not shown: another chain or arm of the molecule; small tags and cut ends)
Fc: B2 Fc with L71R, L79Y, D104R
Kd [1]: 196 nM | koff [1]: 0.118 s⁻¹ | kon [1]: 600000 M⁻¹ s⁻¹

B18: anti-NGF feline IgG1a, Fc variant Q311V (antibody, part only; not given: anti-NGF variable domains, light chain, not shown: another chain or arm of the molecule; small tags and cut ends)
Fc: B2 Fc with L71R, Q81V, D104R
Kd [1]: 80.4 nM | koff [1]: 0.0505 s⁻¹ | kon [1]: 629000 M⁻¹ s⁻¹

B21: anti-NGF feline IgG1a, Fc variant S428Y, Q311V, T286E (antibody, part only; not given: anti-NGF variable domains, light chain, not shown: another chain or arm of the molecule; small tags and cut ends)
Fc: B2 Fc with T56E, L71R, Q81V, D104R, S200Y
Kd [4]: 6.11 nM

B22: anti-NGF feline IgG1a, Fc variant S426L, T289H (antibody, part only; not given: Anti-NGF variable domains, not shown: another chain or arm of the molecule; small tags and cut ends)
Fc: B2 Fc with T59H, L71R, D104R, S198L
Kd [1]: 115 nM | koff [1]: 0.0622 s⁻¹ | kon [1]: 542000 M⁻¹ s⁻¹
